Tests used:
33-mer gliadin peptide = assay: In vivo endopeptidase activity: co-perfusion of 33-mer and PEP in rat jejunum
Description: FIG. 7. Breakdown and detoxification of 33-mer gliadin peptide with PEP.
FIG. 14. (SEQ ID NO:12) Proteolysis of […] (5 μM) co-perfused with individual PEP's (0.1 μM) in the small intestinal lumen of an anesthetized rat. Each enzyme-substrate mixture was introduced via a catheter into a 15-20 cm segment of the upper jejunum. Samples were collected at the other end of the segment, and analyzed by UV-HPLC (215 nm). The control without any PEP is shown in the top trace.
In accordance with the methods of the invention, a prolyl endopeptidase can catalyze breakdown of this peptide, thereby diminishing its toxic effects. […] The ability of this PEP to clear the 33-mer gliadin peptide was evaluated via in vitro and in vivo experiments.
In Vivo Endopeptidase Activity. An adult (female or male) rat was anesthetized and maintained at 36-37° C. during the entire surgical procedure. The peritoneal cavity was opened, and a small incision was made at the beginning and the end of a 15-20 cm jejunum segment. Polyethylene catheters were inserted and secured into the two ends. The input catheter was connected with a pump-driven syringe filled with a solution. […] The collected digestive products were analyzed by HPLC on a C18 column.
In Vivo Hydrolysis. […] In this live animal model, the impact of concerted action of the perfused (luminal) PEP and the brush border (surface) peptidases is assessed.

[1] = Kinetic analysis with reference substrate Succinyl-Ala-Pro-pNA; assay type: biochemical; conditions: Succinyl-Ala-Pro-p-nitroanilide hydrolysis
Description: (§1) Activity Assays. Post-proline cleavage activity was measured using Z-Gly-Pro-p-nitroanilide and Succinyl-Ala-Pro-p-nitroanilide (Bachem, CA). Z-Gly-Pro-pNA was dissolved in a PBS:water:dioxane (8:1.2:0.8) assay mixture. The concentration of Z-Gly-Pro-pNA was varied from 100-600 μM. Although the substrate Z-Gly-Pro-pNA was effective in detecting enzyme activity, its insolubility at higher concentrations precluded kinetic measurements under substrate-saturated conditions. In contrast, Succinyl-Ala-Pro-pNA, had the advantage of high water solubility at all pH values tested, and was therefore a preferred substrate for kinetic studies. […] Reaction mixtures ([…] consisted of 30 μl of 10× pH buffer, final concentration of 0.01 μM enzyme, and Suc-Ala-Pro-pNA to final concentrations between 100 μM to 4 mM.
Kinetic Analysis with Reference Substrates. The activity of each PEP was initially evaluated using the standard chromogenic substrate succinyl-Ala-Pro-pNA. Release of the p-nitroaniline was detected at 410 nm, and kinetic data was fitted to the Michaelis-Menten relationship. Succinyl-Ala-Pro-pNA was selected as a reference substrate instead of the more commonly used Z-Gly-Pro-pNA due to the low solubility of the latter substrate, which necessitated use of co-solvents. The calculated kcat and KM values of FM, MX and SC PEPs for succinyl-Ala-Pro-pNA are tabulated (Table 3). […] The higher specificity of MX can be attributed mainly to its higher affinity for the substrate, as reflected in the KM.

[2] = Enzyme activity vs. pH (kcat titration); assay type: biochemical; conditions: for active site pKa: 100-4000 μM succinyl-Ala-Pro-pNA
Description: FIG. 8. Effect of pH on the turnover numbers (kcat) of FM PEP, MX PEP and SC PEP.
as §1
Enzyme Activity vs. pH. The luminal environment of the duodenum is approximately at pH 6. Therefore, a therapeutically useful PEP must retain high specific activity at that pH. The steady state turnover rate, kcat, of each PEP was titrated in various pH conditions using 100-4000 μM succinyl-Ala-Pro-pNA, shown in FIG. 8. […] Such conformational changes have been implicated in the catalytic cycle of the structurally characterized porcine brain PEP.

[3] = system: PQPQLPYPQPQLP, 33-mer and pepsin-treated gluten; assay: Competitive proteolysis in pepsin-treated gluten with pancreatic enzymes and BBM; assay type: biochemical, wheat; conditions: pancreatic enzymes, BBM
Description: FIGS. 13A-13B. […] This complex mixture of substrates was treated under physiological conditions with a mixture of pancreatic enzymes (trypsin, chymotrypsin, carboxypeptidase, elastase), brush border membrane enzymes (derived from rat small intestine) and either (A) FM PEP or (B) MX PEP.
The resulting solution was neutralized using 10 M NaOH and diluted to 10 g/L in a phosphate buffer (40 mM, pH 6.5). […] Prolyl endopeptidase (FM or MX; 1×: 500 mU/ml; 5×: 2.5 U/ml; 10×: 5 U/ml) and rat intestinal brush border surface membranes (BB, 1×: 40 mU/ml, 2×: 80 mU/ml, DPP IV activity) were added to a total volume of 150 μl. The mixture was incubated at 37° C. and […] aliquots were taken at 0, 5, 10, 30 and 60 min and immediately heat deactivated.

B1: PEP: prolyl endopeptidase; Examples 1-2: from Flavobacterium meningosepticum (US Biological); Example 11: source not stated (protein, UniProt P27028 21-705, looked up)
Prolyl endopeptidase: QNSNVLKYPETKKVSHTDTYFGTQVSDPYRWLEDDRAEDTKAWVQQEVKFTQDYLAQIPFRDQLKKQLMDIWNYEKISAPFKKGKYTYFSKNDGLQAQSVLYRKDAAGKTEVFLDPNKFSEKGTTSLASVSFNKKGTLVAYSISEGGSDWNKIIILDAETKKQLDETLLDVKFSGISWLGDEGFFYSSYDKPKEGSVLSGMTDKHKVYFHKLGTKQSQDELIIGGDKFPRRYIGAYVTDDQRYLVVSAANATNGNELYIKDLKNKTDFIPIITGFDSNVNVADTDGDTLYLFTDKDAPNKRLVKTTIQNPKAETWKDVIAETSEPLEINTGGGYFFATYMKDAIDQVKQYDKNGKLVRAIKLPGSGNASGFGGEKTEKDLYYSFTNYITPPTIFKYNVTTGNSEVYQKPKVKFNPENYVSEQVFYTSSDGTKIPMMISYKKGLKKDGKNPTILYSYGGFNISLQPAFSVVNAIWMENGGIYAVPNIRGGGEYGKKWHDAGTKMQKKNVFNDFIAAGEYLQKNGYTSKEYMALSGRSNGGLLVGATMTMRPDLAKVAFPGVGVLDMLRYNKFTAGAGWAYDYGTAEDSKEMFEYLKSYSPVHNVKAGTCYPSTMVITSDHDDRVVPAHSFKFGSELQAKQSCKNPILIRIETNAGHGAGRSTEQVVAENADLLSFALYEMGIKSLK
detoxification (clearance) of the 33-mer gliadin peptide (33-mer gliadin peptide; rat BBM and co-perfusion in intact rat intestines): this detoxification was demonstrated

B2: FM PEP: recombinant prolyl endopeptidase from Flavobacterium meningosepticum (Genbank D10980) (protein)
chain: B1 Prolyl endopeptidase
Kcat [1]: 33 s⁻¹ | Km [1]: 910 µM | active site pKa [2]: ~6 | pH optimum ([2]; as stated in the description, no method given): ~7 | relative rates of proteolysis of PQPQLPYPQPQLP, 33-mer and other gluten peptides [3]: at comparable rates | breakdown of the 33-mer co-perfused in rat jejunum (33-mer gliadin peptide; 5 μM 33-mer, 0.1 μM PEP, 15-20 cm segment): promoted more complete breakdown of the 33-mer than both the MX and the SC PEP

B3: MX PEP: novel recombinant prolyl endopeptidase from Myxococcus xanthus (Genbank AF127082, SEQ ID NO:47) (protein, listed as Myxococcus xanthus)
chain: MSYPATRAEQVVDTLHGVQVADPYRWLEDEKAPEVQTWMTAQNAHAREALAKFPGREALAARFKELFYTDSVSTPSRRNGRFFYVRTHKDKEKAILYWRQGESGQEKVLLDPNGWSKDGTVSLGTWAVSWDGKKVAFAQKPNAADEAVLHVIDVDSGEWSKVDVIEGGKYATPKWTPDSKGFYYEWLPTDPSIKVDERPGYTTIRYHTLGTEPSKDTVVHERTGDPTTFLQSDLSRDGKYLFVYILRGWSENDVYWKRPGEKDFRLLVKGVGAKYEVHAWKDRFYVLTDEGAPRQRVFEVDPAKPARASWKEIVPEDSSASLLSVSIVGGHLSLEYLKDATSEVRVATLKGKPVRTVQLPGVGAASNLMGLEDLDDAYYVFTSFTTPRQIYKTSVSTGKSELWAKVDVPMNPEQYQVEQVFYASKDGTKVPMFVVHRKDLKRDGNAPTLLYGYGGFNVNMEANFRSSILPWLDAGGVYAVANLRGGGEYGKAWHDAGRLDKKQNVFDDFHAAAEYLVQQKYTQPKRLAIYGGSNGGLLVGAAMTQRPELYGAVVCAVPLLDMVRYHLFGSGRTWIPEYGTAEKPEDFKTLHAYSPYHHVRPDVRYPALLMMAADHDDRVDPMHARKFVAAVQNSPGNPATALLRIEANAGHGGADQVAKAIESSVDLYSFLFQVLDVQGAQGGVAAQGR
Kcat [1]: 51 s⁻¹ | Km [1]: 350 µM | active site pKa [2]: ~6 | relative rates of proteolysis of PQPQLPYPQPQLP, 33-mer and other gluten peptides [3]: hydrolysis of the 33-mer occurred at a slower rate | time for breakdown of PQPQLPYPQPQLP and other smaller peptides [3]: 10 min
